{"source": "paper PMC7319042", "about": "(Structure (London, England : 1993), 2018)", "molecules": {"B1": {"name": "HIV-1 Rev^116 (full-length wild-type Rev), P04618 1-116 (natural protein)", "chain": "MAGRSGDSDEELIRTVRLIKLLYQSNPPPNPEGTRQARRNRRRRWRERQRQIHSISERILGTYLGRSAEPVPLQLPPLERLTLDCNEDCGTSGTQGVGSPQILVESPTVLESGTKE"}, "B2": {"name": "chimeric rabbit/human scFv SJS-R1 (anti-Rev single-chain variable fragment) (scFv, V domains shown)", "VH": "QEQLVESGGRLVTPGTALTLTCKVSGFSLSGFWLNWVRQAPGKGLEWVGAIYRGSGSEWYASWAKGRFTISDTSTTVTLKLTSPTTEDTATYFCAADTTDNGYFTIWGPGTLVTVSS", "VL": "ELVMTQTPSSVSEPVGGTVTIKCQASQSISSWLSWYQQKPGQPPKLLIYDASNLASGVPSRFMGSGSGTEYTLTISGVQREDAATYYCLGGYPAASYRTAFGGGTELEII"}}, "key": {"[1]": {"target": "Rev (Human immunodeficiency virus 1) (UniProt P04325)", "details": "cited from earlier work"}, "[2]": {"target": "T1, HIV-1 Rev^116 (full-length wild-type Rev) (HIV-1), P04618", "T1 chain": "B1 chain", "assay": "AUC", "details": "remark: other sources report otherwise"}, "[3]": {"target": "T1, HIV-1 Rev^116 (full-length wild-type …)", "assay": "light scattering at 320 nm of thermally induced assembly", "details": "remark: other sources report otherwise"}, "[4]": {"target": "HIV-1 Rev^116 (full-length wild-type Rev) (HIV-1, UniProt P04618)", "assay": "light scattering at 320 nm of the"}, "[5]": {"target": "HIV-1 Rev^93 (C-terminally truncated Rev, amino acids 1-93) (HIV-1, UniProt P04618)", "assay": "crystal structure"}, "Rev116": {"target": "Rev116 (HIV-1, UniProt P04616 1-116)", "assay": "analytical ultracentrifugation"}}}
{"molecule": "Rev (from UniProt P04325)", "values": [{"measurement": "Kd", "setting": "[1]", "value": 1000, "unit": "nM"}]}
{"molecule": "B1", "values": [{"measurement": "stoichiometry N", "setting": "[2]", "value": 4}, {"measurement": "critical concentration (Cr) of polymer formation", "setting": "[3]", "value": 11, "unit": "µM"}]}
{"molecule": "B2", "values": [{"measurement": "binding result", "setting": "[4]", "value": "binds"}, {"measurement": "binding result", "setting": "[5]", "value": "binds"}]}
{"molecule": "GGCUGGACUCGUACUUCGGUACUGGAGAAACAGCC (structured_RNA)", "note": "[RBA-14]", "values": [{"measurement": "binding result", "setting": "Rev116", "value": "binds"}]}
